Experimental data from the supplement of paper PMC9112550, “Optimization of the antimicrobial peptide Bac7 by deep mutational scanning” (BMC Biology, 2022).

Test system: Escherichia coli TOP10
Assay: shrunken log2 fold change of peptide-encoding DNA abundance (4.5 h post-induction vs induction); higher = less antimicrobial activity (less host growth inhibition)
Details: time post-induction: 4.5 h; library: site-saturation at positions 5, 18, 19, 20
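Also: peptides expressed intracellularly from a pBAD plasmid library in pooled LB shake-flask culture, induced with 0.3% L-arabinose, DNA abundance read by NGS, three biological replicates, DESeq2 with apeglm shrinkage.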

Row | Sequence | shrunken log2 fold change
1 | RRIRMRPPRLPRPRPRPHKVPRP | 0.14
2 | RRIRMRPPRLPRPRPRPHLMPRP | 0.151
3 | RRIRMRPPRLPRPRPRPHLPPRP | -0.00448
4 | RRIRMRPPRLPRPRPRPHMEPRP | -0.0461
5 | RRIRMRPPRLPRPRPRPHPIPRP | -0.116
6 | RRIRMRPPRLPRPRPRPHPLPRP | 0.37
7 | RRIRMRPPRLPRPRPRPHRLPRP | 0.108
8 | RRIRMRPPRLPRPRPRPHRRPRP | 0.0631
9 | RRIRMRPPRLPRPRPRPHSMPRP | -0.0253
10 | RRIRMRPPRLPRPRPRPHTGPRP | 0.0957
11 | RRIRMRPPRLPRPRPRPHTHPRP | -0.00443
12 | RRIRMRPPRLPRPRPRPHTRPRP | 0.387
13 | RRIRMRPPRLPRPRPRPHVHPRP | 0.0308
14 | RRIRMRPPRLPRPRPRPHWCPRP | -0.153
15 | RRIRMRPPRLPRPRPRPHWSPRP | 0.0857
16 | RRIRMRPPRLPRPRPRPHWYPRP | -0.484
17 | RRIRMRPPRLPRPRPRPHYCPRP | -0.116
18 | RRIRMRPPRLPRPRPRPHYKPRP | -0.539
19 | RRIRMRPPRLPRPRPRPHYTPRP | -0.399
20 | RRIRMRPPRLPRPRPRPIAIPRP | 0.226
21 | RRIRMRPPRLPRPRPRPICEPRP | 0.241
22 | RRIRMRPPRLPRPRPRPICTPRP | 0.153
23 | RRIRMRPPRLPRPRPRPIEIPRP | -0.0115
24 | RRIRMRPPRLPRPRPRPIFRPRP | 0.185
25 | RRIRMRPPRLPRPRPRPIGPPRP | 0.069

Row | Sequence | shrunken log2 fold change
26 | RRIRMRPPRLPRPRPRPIHAPRP | -0.0962
27 | RRIRMRPPRLPRPRPRPIHCPRP | -0.105
28 | RRIRMRPPRLPRPRPRPIIAPRP | 0.0852
29 | RRIRMRPPRLPRPRPRPIIRPRP | 0.0027
30 | RRIRMRPPRLPRPRPRPIISPRP | -0.0891
31 | RRIRMRPPRLPRPRPRPIKDPRP | -0.165
32 | RRIRMRPPRLPRPRPRPILVPRP | 0.133
33 | RRIRMRPPRLPRPRPRPIPEPRP | -0.0403
34 | RRIRMRPPRLPRPRPRPIQDPRP | -0.114
35 | RRIRMRPPRLPRPRPRPIQIPRP | -0.155
36 | RRIRMRPPRLPRPRPRPIRFPRP | -0.133
37 | RRIRMRPPRLPRPRPRPIRHPRP | 0.017
38 | RRIRMRPPRLPRPRPRPIRYPRP | 0.0982
39 | RRIRMRPPRLPRPRPRPISQPRP | -0.29
40 | RRIRMRPPRLPRPRPRPISRPRP | 0.074
41 | RRIRMRPPRLPRPRPRPIVDPRP | 0.35
42 | RRIRMRPPRLPRPRPRPIVHPRP | -0.289
43 | RRIRMRPPRLPRPRPRPIVQPRP | -0.0131
44 | RRIRMRPPRLPRPRPRPIWFPRP | 0.1
45 | RRIRMRPPRLPRPRPRPIWKPRP | 0.00523
46 | RRIRMRPPRLPRPRPRPIWSPRP | 0.0584
47 | RRIRMRPPRLPRPRPRPIYKPRP | -0.0684
48 | RRIRMRPPRLPRPRPRPIYMPRP | -0.0618
49 | RRIRMRPPRLPRPRPRPKCTPRP | 0.995
50 | RRIRMRPPRLPRPRPRPKDYPRP | 0.224

Row | Sequence | shrunken log2 fold change
51 | RRIRMRPPRLPRPRPRPKEMPRP | 0.31
52 | RRIRMRPPRLPRPRPRPKFMPRP | 0.0431
53 | RRIRMRPPRLPRPRPRPKGDPRP | 2.08
54 | RRIRMRPPRLPRPRPRPKGEPRP | 1.27
55 | RRIRMRPPRLPRPRPRPKGPPRP | 0.716
56 | RRIRMRPPRLPRPRPRPKGVPRP | 1.1
57 | RRIRMRPPRLPRPRPRPKHFPRP | 0.176
58 | RRIRMRPPRLPRPRPRPKHLPRP | 0.142
59 | RRIRMRPPRLPRPRPRPKIEPRP | 0.367
60 | RRIRMRPPRLPRPRPRPKISPRP | 0.0938
61 | RRIRMRPPRLPRPRPRPKIWPRP | 0.704
62 | RRIRMRPPRLPRPRPRPKKRPRP | 2.01
63 | RRIRMRPPRLPRPRPRPKLTPRP | 1.14
64 | RRIRMRPPRLPRPRPRPKPVPRP | 0.895
65 | RRIRMRPPRLPRPRPRPKSMPRP | 0.0732
66 | RRIRMRPPRLPRPRPRPKTCPRP | 0.12
67 | RRIRMRPPRLPRPRPRPKTMPRP | -0.0578
68 | RRIRMRPPRLPRPRPRPKTVPRP | 0.847
69 | RRIRMRPPRLPRPRPRPKVFPRP | 0.0743
70 | RRIRMRPPRLPRPRPRPKWGPRP | 0.729
71 | RRIRMRPPRLPRPRPRPKWIPRP | -0.124
72 | RRIRMRPPRLPRPRPRPLDEPRP | 0.0492
73 | RRIRMRPPRLPRPRPRPLDFPRP | -0.129
74 | RRIRMRPPRLPRPRPRPLELPRP | 0.337
75 | RRIRMRPPRLPRPRPRPLFQPRP | -0.279

Row | Sequence | shrunken log2 fold change
76 | RRIRMRPPRLPRPRPRPLFSPRP | 0.0255
77 | RRIRMRPPRLPRPRPRPLFTPRP | -0.171
78 | RRIRMRPPRLPRPRPRPLFWPRP | 0.554
79 | RRIRMRPPRLPRPRPRPLGAPRP | 1.25
80 | RRIRMRPPRLPRPRPRPLGSPRP | 0.169
81 | RRIRMRPPRLPRPRPRPLHDPRP | 0.487
82 | RRIRMRPPRLPRPRPRPLHYPRP | -0.173
83 | RRIRMRPPRLPRPRPRPLKCPRP | -0.0167
84 | RRIRMRPPRLPRPRPRPLKGPRP | -0.0357
85 | RRIRMRPPRLPRPRPRPLKIPRP | -0.0474
86 | RRIRMRPPRLPRPRPRPLKRPRP | 0.0303
87 | RRIRMRPPRLPRPRPRPLLNPRP | 0.366
88 | RRIRMRPPRLPRPRPRPLNTPRP | 0.163
89 | RRIRMRPPRLPRPRPRPLPKPRP | 1.11
90 | RRIRMRPPRLPRPRPRPLPMPRP | 0.429
91 | RRIRMRPPRLPRPRPRPLRFPRP | 0.74
92 | RRIRMRPPRLPRPRPRPLRHPRP | 1.98
93 | RRIRMRPPRLPRPRPRPLTRPRP | 0.608
94 | RRIRMRPPRLPRPRPRPLTTPRP | 1.06
95 | RRIRMRPPRLPRPRPRPLVLPRP | 0.141
96 | RRIRMRPPRLPRPRPRPLVWPRP | 0.955
97 | RRIRMRPPRLPRPRPRPLWHPRP | 0.336
98 | RRIRMRPPRLPRPRPRPMAKPRP | 0.245
99 | RRIRMRPPRLPRPRPRPMDFPRP | -0.00448
100 | RRIRMRPPRLPRPRPRPMDGPRP | 0.418

Row | Sequence | shrunken log2 fold change
101 | RRIRMRPPRLPRPRPRPMDHPRP | -0.00783
102 | RRIRMRPPRLPRPRPRPMHIPRP | 0.0159
103 | RRIRMRPPRLPRPRPRPMIMPRP | 0.421
104 | RRIRMRPPRLPRPRPRPMKGPRP | 0.235
105 | RRIRMRPPRLPRPRPRPMNAPRP | -0.0277
106 | RRIRMRPPRLPRPRPRPMNHPRP | -0.129
107 | RRIRMRPPRLPRPRPRPMNVPRP | -0.147
108 | RRIRMRPPRLPRPRPRPMNWPRP | -0.117
109 | RRIRMRPPRLPRPRPRPMPYPRP | 0.018
110 | RRIRMRPPRLPRPRPRPMQMPRP | 0.671
111 | RRIRMRPPRLPRPRPRPMQRPRP | 0.556
112 | RRIRMRPPRLPRPRPRPMSRPRP | 0.0997
113 | RRIRMRPPRLPRPRPRPMTKPRP | 0.0956
114 | RRIRMRPPRLPRPRPRPMTLPRP | 0.113
115 | RRIRMRPPRLPRPRPRPMVNPRP | -0.254
116 | RRIRMRPPRLPRPRPRPMWDPRP | 0.128
117 | RRIRMRPPRLPRPRPRPMWGPRP | 0.285
118 | RRIRMRPPRLPRPRPRPMWLPRP | 0.208
119 | RRIRMRPPRLPRPRPRPMWSPRP | -0.027
120 | RRIRMRPPRLPRPRPRPMYYPRP | -0.339
121 | RRIRMRPPRLPRPRPRPNACPRP | 0.0451
122 | RRIRMRPPRLPRPRPRPNAGPRP | 0.416
123 | RRIRMRPPRLPRPRPRPNCDPRP | 0.194
124 | RRIRMRPPRLPRPRPRPNCIPRP | 0.11
125 | RRIRMRPPRLPRPRPRPNDGPRP | -0.0703

Row | Sequence | shrunken log2 fold change
126 | RRIRMRPPRLPRPRPRPNDSPRP | -0.0147
127 | RRIRMRPPRLPRPRPRPNEDPRP | 0.186
128 | RRIRMRPPRLPRPRPRPNFRPRP | 0.0542
129 | RRIRMRPPRLPRPRPRPNHHPRP | -0.592
130 | RRIRMRPPRLPRPRPRPNHLPRP | -0.0575
131 | RRIRMRPPRLPRPRPRPNHMPRP | -0.01
132 | RRIRMRPPRLPRPRPRPNIMPRP | -0.466
133 | RRIRMRPPRLPRPRPRPNKRPRP | 0.261
134 | RRIRMRPPRLPRPRPRPNKYPRP | -0.148
135 | RRIRMRPPRLPRPRPRPNLFPRP | 0.124
136 | RRIRMRPPRLPRPRPRPNLNPRP | -0.0299
137 | RRIRMRPPRLPRPRPRPNMVPRP | -0.147
138 | RRIRMRPPRLPRPRPRPNNFPRP | -0.169
139 | RRIRMRPPRLPRPRPRPNPSPRP | 0.758
140 | RRIRMRPPRLPRPRPRPNQKPRP | 0.00203
141 | RRIRMRPPRLPRPRPRPNREPRP | 0.0182
142 | RRIRMRPPRLPRPRPRPNSRPRP | 0.169
143 | RRIRMRPPRLPRPRPRPNTNPRP | 0.128
144 | RRIRMRPPRLPRPRPRPNWLPRP | 0.286
145 | RRIRMRPPRLPRPRPRPPADPRP | 2.99
146 | RRIRMRPPRLPRPRPRPPAPPRP | 2.01
147 | RRIRMRPPRLPRPRPRPPAWPRP | 1.22
148 | RRIRMRPPRLPRPRPRPPDIPRP | 0.121
149 | RRIRMRPPRLPRPRPRPPDQPRP | 2.01
150 | RRIRMRPPRLPRPRPRPPEYPRP | -0.035
